Experimental data: publication PMC10830420, “Structures, functions and adaptations of the human LINE-1 ORF2 protein” (Nature, 2023)

Tested on: Nc1ncnc2c1ncn2[C@H]1C[C@H](O)[C@@H](COP(=O)(O)OP(=O)(O)OP(=O)(O)O)O1
Test: Single nucleotide (dATP) incorporation kinetics, HERV-K RT
Assay type: biochemical, human
Settings: 20-nt DNA primer, HERV-K RT 12 nM
Protocol: Extended Data Fig. 5 Comparative enzymology of ORF2p RT with HIV-1 and HERV-K. a, Single nucleotide incorporation kinetic curves and parameters of dATP with 36-nt RNA or DNA template and 20-nt DNA primer with ORF2p core (33 nM), HIV-1 RT (4 nM) and HERV-K RT (12 nM). For each enzyme, Michaelis-Menten parameter kcat/KM is nearly identical on both templates (n = 3 (DNA template) and n = 4 (RNA template) independent samples over 2 independent experiments; data represented as mean ± SD). b, Comparison of HIV-1 RT and ORF2p in extension of very short (5–10 nt) primers, pre-annealed to DNA and RNA templates. ORF2p extends all DNA and RNA primer lengths, with somewhat reduced efficiency at 5 nt and, to a lesser extent, 6 nt. […] ORF2p also makes NTA (+) and template jumping/switching (##) larger products; more visible on longer exposure. […] When all products are quantified, HIV-1 extends 21–37% of primers, and this is roughly halved by the heparin trap; ORF2p extends ~10–18% of primers and is unaffected by the trap. […] Asterisk (*) Cy5-5’-label on primer. n = 1 quantified samples shown representative of two independent experiments. […]

Substance: HERV-K RT (Homo sapiens)
- Km (other: DNA template 36-nt): 4.3 ± 0.1 nM
- Km (other: RNA template 36-nt): 9.5 ± 0.1 nM
